Reference: the supplement of paper PMC7125110
± gives the standard error. For some assays here: This sample holds only a part of the variants without activity.

B1: glmS ribozyme (parent)
chain: AUAAAAGCGCCAGAACUACAGAAAUGUAGUUGACGAGGAGGAGGUUUAUCGAAUUUUCGGCGGAUGCCUCCAAA

Assays:
Conditions in all cases: with glucosamine-6-phosphate
[1] = variants of: B1; test: kcat; higher = faster cleavage; RNA array
Method in brief: (§1)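 Barcoded glmS ribozyme variants on sequenced MiSeq chips were transcribed in situ by E. coli RNA polymerase and tracked through a hybridised Cy3 probe at 37 °C. Glucosamine-6-phosphate (40 μM to 10 mM) in HEPES/KCl/Mg(OAc)2 buffer was flowed in, and tiles were imaged over ~14 h. Signals were normalised to baseline and to non-cleaving reference variants; per-tile medians were fit to one- or two-exponential decays to give kobs. kcat and KM came from weighted Michaelis–Menten fits across concentrations.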

[2] = variants of: B1; test: self-cleavage kobs at 2500 uM GlcN6P; higher = faster cleavage; RNA array
Method in brief: as §1

[3] = variants of: B1; test: self-cleavage kobs at 10000 uM GlcN6P; higher = faster cleavage; RNA array
Method in brief: as §1

[4] = variants of: B1; test: self-cleavage kobs at 40 uM GlcN6P; higher = faster cleavage; RNA array
Method in brief: as §1

[5] = variants of: B1; test: self-cleavage kobs at 160 uM GlcN6P; higher = faster cleavage; RNA array
Method in brief: as §1

[6] = variants of: B1; test: self-cleavage kobs at 640 uM GlcN6P; higher = faster cleavage; RNA array
Method in brief: as §1

[7] = variants of: B1; test: KM; higher = weaker cofactor use; RNA array
Method in brief: as §1

| Variant | kcat [1] | self-cleavage kobs at 2500 uM GlcN6P [2] | self-cleavage kobs at 10000 uM GlcN6P [3] | self-cleavage kobs at 40 uM GlcN6P [4] | self-cleavage kobs at 160 uM GlcN6P [5] | self-cleavage kobs at 640 uM GlcN6P [6] | KM [7] |
| --- | --- | --- | --- | --- | --- | --- | --- |
| A53C C58G | 1.56e-05 ± 5.2e-06 s⁻¹ | – | – | – | – | – | – |
| C16A U30C | 2.39e-05 ± 3.2e-06 s⁻¹ | 2.62e-05 ± 9e-06 s⁻¹ | 2.12e-05 ± 8.1e-06 s⁻¹ | – | – | – | – |
| A39U U56G | 0.0257 ± 0.011 s⁻¹ | 0.00893 ± 0.0013 s⁻¹ | 0.0139 ± 0.0021 s⁻¹ | 0.000177 ± 2.7e-05 s⁻¹ | 0.000402 ± 8.7e-05 s⁻¹ | 0.0021 ± 0.00031 s⁻¹ | – |
| U65A C68G | 4.89e-05 ± 9e-06 s⁻¹ | 4.97e-05 ± 1.2e-05 s⁻¹ | 3.81e-05 ± 7.3e-06 s⁻¹ | – | 8.12e-05 ± 1.8e-05 s⁻¹ | 6.22e-05 ± 1e-05 s⁻¹ | – |
| C11U U56A C70U | 0.00048 ± 0.00011 s⁻¹ | 0.000485 ± 0.00013 s⁻¹ | 0.000416 ± 6.3e-05 s⁻¹ | 3.04e-05 ± 9.5e-06 s⁻¹ | – | 0.000508 ± 0.00011 s⁻¹ | – |
| C16G U45C | 0.0003 ± 7.1e-05 s⁻¹ | 0.000367 ± 9.7e-05 s⁻¹ | 0.000243 ± 3.7e-05 s⁻¹ | – | – | 7.2e-05 ± 2.1e-05 s⁻¹ | – |
| U30C G40C | 4.04e-05 ± 5.2e-06 s⁻¹ | 2.58e-05 ± 1.2e-05 s⁻¹ | 3.87e-05 ± 1.2e-05 s⁻¹ | – | – | – | – |
| C58A C68U | 0.000273 ± 5.2e-05 s⁻¹ | 0.000129 ± 1.2e-05 s⁻¹ | 0.000251 ± 2.3e-05 s⁻¹ | – | 3.66e-05 ± 1e-05 s⁻¹ | 6.75e-05 ± 7e-06 s⁻¹ | 2100 ± 790 µM |
| U30G A53C | 0.00231 ± 0.0004 s⁻¹ | 0.00138 ± 0.00034 s⁻¹ | 0.00177 ± 0.00022 s⁻¹ | – | 0.000159 ± 6.4e-05 s⁻¹ | 0.000512 ± 0.0001 s⁻¹ | 2690 ± 910 µM |
| C10U U69G | 2.93e-05 ± 5.7e-06 s⁻¹ | 3.24e-05 ± 9.9e-06 s⁻¹ | – | – | 2.85e-05 ± 8.2e-06 s⁻¹ | 2.55e-05 ± 1.1e-05 s⁻¹ | – |
| C50G U57A | 7.3e-05 ± 1.7e-05 s⁻¹ | 6.05e-05 ± 2.7e-05 s⁻¹ | – | 3.58e-05 ± 1.6e-05 s⁻¹ | 8.31e-05 ± 1.4e-05 s⁻¹ | 5.84e-05 ± 1.6e-05 s⁻¹ | – |
| A12C U65C | 0.00043 ± 7.3e-05 s⁻¹ | 0.000328 ± 8.4e-05 s⁻¹ | 0.000343 ± 6.2e-05 s⁻¹ | – | – | 0.000102 ± 1.9e-05 s⁻¹ | 1950 ± 620 µM |
| C11G G32A U69G | 3.08e-05 ± 7e-06 s⁻¹ | – | – | – | – | – | – |
| U31A C58G G62C A64C C67A | 1.85e-05 ± 3.6e-06 s⁻¹ | – | – | – | – | – | – |
| C10U C67G U69G | 1.67e-05 ± 3.6e-06 s⁻¹ | – | – | – | – | – | – |
| G44C U56A | 7.55e-05 ± 7.5e-06 s⁻¹ | 3.9e-05 ± 1.4e-05 s⁻¹ | 5.85e-05 ± 6.8e-06 s⁻¹ | – | – | – | 2860 ± 1100 µM |
| A52G C68U | 0.000874 ± 0.00036 s⁻¹ | 0.000377 ± 4e-05 s⁻¹ | 0.000858 ± 9.2e-05 s⁻¹ | 2.35e-05 ± 7.7e-06 s⁻¹ | 9.18e-05 ± 1.1e-05 s⁻¹ | 0.00015 ± 1.7e-05 s⁻¹ | – |

| Variant | kcat [1] | self-cleavage kobs at 2500 uM GlcN6P [2] | self-cleavage kobs at 10000 uM GlcN6P [3] | self-cleavage kobs at 40 uM GlcN6P [4] | self-cleavage kobs at 160 uM GlcN6P [5] | self-cleavage kobs at 640 uM GlcN6P [6] | KM [7] |
| --- | --- | --- | --- | --- | --- | --- | --- |
| A6U C16A | 1.85e-05 ± 5.8e-06 s⁻¹ | – | – | – | – | – | – |
| C58A U69C | 0.000112 ± 1.3e-05 s⁻¹ | 9.46e-05 ± 2.2e-05 s⁻¹ | 0.000107 ± 1.5e-05 s⁻¹ | – | 3.58e-05 ± 1.2e-05 s⁻¹ | 4.91e-05 ± 1e-05 s⁻¹ | 640 ± 220 µM |
| A39U U56C | 0.00176 ± 0.00058 s⁻¹ | 0.000804 ± 0.00019 s⁻¹ | 0.00192 ± 0.0004 s⁻¹ | 3.9e-05 ± 8.2e-06 s⁻¹ | 0.000149 ± 2.8e-05 s⁻¹ | 0.000351 ± 5.4e-05 s⁻¹ | 2130 ± 950 µM |
| U47A G66U | 0.00545 ± 0.0009 s⁻¹ | 0.00244 ± 0.00069 s⁻¹ | 0.00506 ± 0.00076 s⁻¹ | 0.00013 ± 2.5e-05 s⁻¹ | – | 0.00141 ± 0.00028 s⁻¹ | 1780 ± 480 µM |
| A14G A23C A64U | 0.000287 ± 3.5e-05 s⁻¹ | 0.000151 ± 4.3e-05 s⁻¹ | 0.00026 ± 5.2e-05 s⁻¹ | – | – | 8.79e-05 ± 2.3e-05 s⁻¹ | 1610 ± 460 µM |
| U47G A52U | 0.000286 ± 1.4e-05 s⁻¹ | 0.000169 ± 2e-05 s⁻¹ | 0.000234 ± 2.6e-05 s⁻¹ | – | – | 6.99e-05 ± 7.7e-06 s⁻¹ | 1950 ± 180 µM |
| G13C C16G U55A G60C C70G | 1.82e-05 ± 7.2e-06 s⁻¹ | – | – | – | – | – | – |
| A6U G43U | < 1e-05 s⁻¹ | – | – | < 1e-05 s⁻¹ | < 1e-05 s⁻¹ | < 1e-05 s⁻¹ | 6890 ± 1100 µM |
| A6U U45G | 0.000193 ± 3.9e-05 s⁻¹ | – | 4.41e-05 ± 9.1e-06 s⁻¹ | – | < 1e-05 s⁻¹ | – | – |
| G41C A42U | 4.23e-05 ± 1.3e-06 s⁻¹ | – | 3.82e-05 ± 6.7e-06 s⁻¹ | – | < 1e-05 s⁻¹ | – | 1050 ± 290 µM |
| U45G A53U | 0.00477 ± 0.00059 s⁻¹ | 0.00274 ± 0.001 s⁻¹ | 0.004 ± 0.0007 s⁻¹ | 9.6e-05 ± 1.4e-05 s⁻¹ | 0.000306 ± 5.6e-05 s⁻¹ | 0.000953 ± 0.00022 s⁻¹ | 2170 ± 340 µM |
| A14C U65G C70U | 0.0014 ± 0.00044 s⁻¹ | 0.000467 ± 6.2e-05 s⁻¹ | 0.00104 ± 0.00015 s⁻¹ | – | 4.59e-05 ± 1.6e-05 s⁻¹ | 0.000315 ± 6.8e-05 s⁻¹ | – |
| A12G G13U | 9.52e-05 ± 1e-06 s⁻¹ | 6.89e-05 ± 1.1e-05 s⁻¹ | 8.62e-05 ± 7.6e-06 s⁻¹ | – | – | 3.63e-05 ± 8.6e-06 s⁻¹ | 1020 ± 43 µM |
| A14C G40A | 0.00106 ± 0.00042 s⁻¹ | 0.000306 ± 8.2e-05 s⁻¹ | 0.00112 ± 0.00011 s⁻¹ | 3.61e-05 ± 8.7e-06 s⁻¹ | 8.2e-05 ± 1.6e-05 s⁻¹ | 0.000371 ± 5.8e-05 s⁻¹ | – |
| U30G U46A G66C | 0.000292 ± 0.00014 s⁻¹ | 0.00038 ± 8.8e-05 s⁻¹ | 0.000218 ± 5.4e-05 s⁻¹ | – | – | 6.55e-05 ± 2.5e-05 s⁻¹ | – |
| C16U U30C | 7.72e-05 ± 8.6e-06 s⁻¹ | 5.88e-05 ± 8.5e-06 s⁻¹ | 8.45e-05 ± 9.1e-06 s⁻¹ | < 1e-05 s⁻¹ | 3.52e-05 ± 1.7e-05 s⁻¹ | 6.63e-05 ± 2.2e-05 s⁻¹ | – |
| G9U A48C C50G | – | – | – | – | – | – | 92.6 ± 7.4 µM |
